Assay results reported in US20230349919A1 (Regeneron, published 2023).

Experiments:
[1] = molecular target: T1, Der p 1 (house dust mite, UniProt P08176 99-320); assay: ELISA, coated Der p1
T1 construct: Also used oligonucleotide-barcoded for cell staining; also called natural Der p 1
T1 sequence (looked up): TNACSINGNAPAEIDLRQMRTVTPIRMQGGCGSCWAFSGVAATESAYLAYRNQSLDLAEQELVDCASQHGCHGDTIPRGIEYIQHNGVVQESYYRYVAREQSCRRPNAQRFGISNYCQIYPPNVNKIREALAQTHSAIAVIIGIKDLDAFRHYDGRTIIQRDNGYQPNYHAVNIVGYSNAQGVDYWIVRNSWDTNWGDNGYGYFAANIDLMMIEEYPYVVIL
Procedure: (§1) After selecting allergen-specific antibodies, relative binding to Der p 1, Der p 2, and Der f 1 were quantified by ELISA. […] Specifically, binding microtiter plates were coated with 100 μl of 2 μg/mL of natural Der p 1, Der p 2, Der f 1, and Ole e 1 in PBS overnight at 4′C. IgE antibodies were prepared at a concentration of 1 μg/mL and serially diluted three-fold in PBS with 0.5% w/v BSA. After washing with 0.05% v/v Tween® 20 in PBS and blocking in PBS with 0.5% w/v BSA, 100 μl of the diluted IgE antibodies were transferred to the plates and incubated for one hour at ambient temperature. Subsequently, 100 μL of anti-mouse IgE antibody conjugated to horse-radish peroxidase (HRP) diluted at 1:5000 was added. The plates were then incubated for one hour at ambient temperature, and washed in 0.05% v/v/Tween® 20 in PBS. Subsequently, the HRP substrate 3,3′,5,5′-tetramethylbenzidine (TMB) was added. The reaction was stopped (with 100 μL of sulfuric acid 2.0 N) and optical density values determined using a plate reader at 450 nm.

[2] = molecular target: T2, Der p 2 (house dust mite, UniProt P49278 18-146); assay: barcoded-antigen count on source cell
T2 construct: Also used oligonucleotide-barcoded for cell staining
T2 sequence (looked up): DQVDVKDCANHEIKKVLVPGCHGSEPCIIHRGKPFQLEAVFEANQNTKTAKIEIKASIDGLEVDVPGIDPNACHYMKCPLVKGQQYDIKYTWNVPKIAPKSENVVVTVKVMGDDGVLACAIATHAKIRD

[3] = molecular target: T3, Der f 1 (house dust mite, UniProt P16311 99-321); assay: barcoded-antigen count on source cell
T3 construct: Also used oligonucleotide-barcoded for cell staining
T3 sequence (looked up): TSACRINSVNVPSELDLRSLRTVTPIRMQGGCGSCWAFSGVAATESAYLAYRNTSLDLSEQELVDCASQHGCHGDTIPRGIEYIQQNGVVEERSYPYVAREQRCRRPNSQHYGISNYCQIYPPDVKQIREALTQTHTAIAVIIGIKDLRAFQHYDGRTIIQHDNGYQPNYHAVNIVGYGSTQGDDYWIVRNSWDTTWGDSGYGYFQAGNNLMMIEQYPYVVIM

[4] = molecular target: T3, Der f 1; assay: ELISA, coated Der f1
Procedure: as §1

[5] = molecular target: T2, Der p 2; assay: barcode rank score against control Ole e 1
[6] = molecular target: T3, Der f 1; assay: barcode rank score against control Ole e 1
[7] = molecular target: T2, Der p 2; assay: centered log-ratio of barcode count
Text: (§2) The barcoded antigen library was mapped by the CellRanger software to a custom short-read reference that contained the DNA tag sequences of the four barcoded antigens, namely, Der p 1, Der p 2, Der f 1 and Ole e 1. These tag sequences were quantified across all cells and were normalized by taking the centered log-ratio (CLR) per barcoded antigen across each sample capture. In addition, background antigen signal for each barcoded antigen was removed by DSB (Denoised and Scaled by Background). Both the CLR and the DSB normalized values were used to quantify the target antigen signals, namely, those for Der p 1, Der p 2 and Der f 1, against the control signal, namely, that for Ole e 1.

[8] = molecular target: T3, Der f 1; assay: centered log-ratio of barcode count
Text: as §2

[9] = molecular target: T2, Der p 2; assay: ELISA, coated Der p2
Procedure: as §1

[10] = molecular target: T1, Der p 1; assay: barcoded antigen sequencing of single IgE PCs with trapped IgE [cont.]
Text: as §2

[11] = molecular target: T2, Der p 2; assay: as above
Text: as §2

[12] = molecular target: T3, Der f 1; assay: as above
Text: as §2

[13] = molecular target: T1, Der p 1; assay: antigen specificity score against Ole e 1 from barcode counts of single IgE PCs [cont.]
Procedure: (§3) Antigen specificity score (AgSS) for IgG were calculated by subtracting the quantile of hIL-6Rα barcoded UMI counts multiplied by a penalty factor (x) from the quantile of hIL-4Rα barcoded UMI counts, AgSS=Q_hIL-4Rα-Q_hIL-6Rα^x. AgSS for IgE were calculated with a similar formula for mouse and human single cell data. For IgE scores the target antigens were either Der p1, Der p2 or Der f1 and the control was always Ole e1.
(§4) Following processing of the three single-cell libraries, the gene expression and V(D)J region sequencing data were used to subset PCs with a valid IgE constant region and detectable expression of IgE and CD79a but lacking the expression of Ms4a1 and CD19 typically found in non-PC B cells. IgE-expressing PCs were then assessed for differential expression against additional IgA, IgG, and IgM plasma cell isotypes to further characterize the unique transcriptional signature of IgE-secreting PCs. IgE-secreting PCs were then assessed for antigen specificity by comparing the normalized levels of the target antigens, namely, Der p 1, Der p 2, or Der f 1, against the normalized level of the control antigen Ole e 1. This was performed by calculating an empirical score for each target antigen and subtracting the […] with a penalty factor. The formula used to do is set forth below: […]

[14] = molecular target: T2, Der p 2; assay: as above
Procedure: as §3, §4

[15] = molecular target: T3, Der f 1; assay: as above
Procedure: as §3, §4

[16] = molecular target: T1, Der p 1; assay: barcoded antigen sequencing of single IgE PCs with trapped IgE
[17] = molecular target: T2, Der p 2; assay: as above
[18] = molecular target: T3, Der f 1; assay: as above

B1: IgE mAb 12_2 (antibody, V domains shown)
VH: QAYLQQSGAELVRPGASVKMSCKASGYTFISYNMHWVKQTRRQGLEWIGAIYPGNGDTSYNQKFKGKATLTVDKSSSTAYMQLSSLTSEDSAVYFCARWDYYGSSYGAYWGQGTLVTVSA
VL: DIQMTQSPASLSVSVGETVTITCRASENIYSNLAWYQQKQGKSPQLLVYAATNLADGVPSRFSGSGSGTQYSLKINSLQSEDFGSYYCQHFWGTPWTFGGGTKLEIK
EC50 (read off the curve) [1]: ~100 pM
Derp2_ab_raw [2]: 11 counts
Derf1_ab_raw [3]: 57 counts
EC50 (read off the curve) [4]: ~100 pM
Derp2_ab_rank [5]: 0.453
Derf1_ab_rank [6]: 0.973
Derp2_ab_clr [7]: 0.00487
Derf1_ab_clr [8]: 1.74
EC50 (read off the curve) [9]: ~100 pM

B2: Candidate ID 13 (antibody, V domains shown)
VH: B1 VH
VL: B1 VL
Normalized Barcode Count [10]: 0.233
Normalized Barcode Count [11]: 0.005
Normalized Barcode Count [12]: 1.74
Antigen Score [13]: 0.637
Antigen Score [14]: 0.453
Antigen Score [15]: 0.973
Raw Antigen Barcode Count [16]: 15
Raw Antigen Barcode Count [17]: 11
Raw Antigen Barcode Count [18]: 57
